Test results as given in US9645151B2, “Targeting phosphofructokinase and its glycosylation form for cancer” (California Institute of Technology, priority 2012, dated 2017).

Key:
PFK1 [1] = biological target: T1, PFK1 (Homo sapiens, UniProt P17858); assay: PFK1 oligomerization by native gel electrophoresis; details: 50 nM F-2,6-BP, 50° C. for 30 min (FIG. 21)
T1 construct: made in house
T1 sequence (P17858 1-780): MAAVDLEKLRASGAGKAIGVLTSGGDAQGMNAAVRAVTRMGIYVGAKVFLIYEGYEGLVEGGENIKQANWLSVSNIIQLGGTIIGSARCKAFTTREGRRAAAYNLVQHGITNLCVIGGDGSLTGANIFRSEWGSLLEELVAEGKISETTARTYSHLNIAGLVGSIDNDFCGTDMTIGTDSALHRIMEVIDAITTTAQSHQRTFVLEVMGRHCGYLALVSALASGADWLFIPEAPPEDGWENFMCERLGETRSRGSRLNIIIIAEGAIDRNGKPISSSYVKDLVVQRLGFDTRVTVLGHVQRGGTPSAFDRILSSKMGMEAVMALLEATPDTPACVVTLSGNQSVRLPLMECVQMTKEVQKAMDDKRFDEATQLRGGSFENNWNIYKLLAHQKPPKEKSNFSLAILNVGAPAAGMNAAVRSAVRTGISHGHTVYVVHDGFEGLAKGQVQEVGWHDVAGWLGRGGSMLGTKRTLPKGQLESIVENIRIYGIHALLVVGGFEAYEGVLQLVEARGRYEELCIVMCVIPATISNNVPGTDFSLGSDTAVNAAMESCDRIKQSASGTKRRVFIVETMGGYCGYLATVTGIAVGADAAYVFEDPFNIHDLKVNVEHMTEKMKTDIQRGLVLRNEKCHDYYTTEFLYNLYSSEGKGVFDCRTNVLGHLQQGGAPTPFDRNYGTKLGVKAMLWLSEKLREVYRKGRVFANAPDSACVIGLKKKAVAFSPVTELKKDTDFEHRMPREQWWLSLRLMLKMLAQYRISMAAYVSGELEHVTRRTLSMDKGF
Protocol: Flag-tagged PFK1 (L isoform) was transiently expressed in 293T cells with or without co-expression of HA-tagged OGT. After 36 h, Flag-tagged PFK1 was isolated from the lysate using Flag M2 immunoaffinity resin and eluted with a 3 Å˜Flag peptide as described above. The eluent was concentrated using Amicon Ultra Centrifugal Filters (10-kD molecular weight cutoff). Similarly, 293T cells expressing Flag-tagged PFK1 were treated with PUGNAc (100 μM, 12 h) or cultured under hypoxic conditions (0.5% O2, 5% CO2, and 94.5% N2) at 37° C. for 24 h, before protein isolation. As a control, heat treatment of PFK1 in the presence or absence of 50 nM F-2,6-BP was performed at 50° C. for 30 min. The proteins were then subjected to native gel electrophoresis (Bio-Rad) and visualized by Coomassie blue staining as described above.

[2] = system: H1299, A549, or 293T cells; assay: Cell viability by trypan blue exclusion after PUGNAc treatment; assay type: cell-based, human; details: PUGNAc 100 μM for 9 h
PFK1 [3] = assay: Analysis of PFK1 glycosylation (chemoenzymatic labeling, immunoblot); assay type: cell-based, human; details: 293T cells (FIG. 14)
Protocol: To carry out chemoenzymatic labeling and biotinylation of proteins in cell lysates, cell lines and tissues were first lysed in lysis buffer (1% SDS, 50 mM Tris-HCl, pH 7.5, 100 mM NaCl, 10 μM PUGNAc, and Complete™ protease inhibitors (Roche)). The cell lysate (400 μg) was then labeled according to the Click-iT O-GlcNAc Enzymatic Labeling System protocol (Invitrogen) and conjugated with an alkyne-biotin compound as per the Click-iT Protein Analysis Detection Kit protocol (Invitrogen). Control experiments were carried out in parallel in the absence of the labeling enzyme GalT. […] To quantify the percentage of glycosylation, the intensity of the band eluted from resin (the glycosylated protein fraction) and the band from the input (the total protein) were measured. […] The percentage of glycosylation on Flag-tagged PFK1 was determined by using an antibody to Flag. To quantify the percentage of glycosylation, the intensity of the PEG-shifted band (the glycosylated protein fraction) and the unshifted band (the non-glycosylated protein fraction) were measured and the ratio of the intensity of the glycosylated protein fraction over the intensity of the total protein (glycosylated protein fraction plus non-glycosylated protein fraction) was taken as the glycosylation stoichiometry.

PFK1 [4] = biological target: T2, PFK1 (Homo sapiens, UniProt P17858); assay: PFK1 enzymatic assay; assay type: biochemical
T2 construct: made in house
T2 sequence (P17858 2-780): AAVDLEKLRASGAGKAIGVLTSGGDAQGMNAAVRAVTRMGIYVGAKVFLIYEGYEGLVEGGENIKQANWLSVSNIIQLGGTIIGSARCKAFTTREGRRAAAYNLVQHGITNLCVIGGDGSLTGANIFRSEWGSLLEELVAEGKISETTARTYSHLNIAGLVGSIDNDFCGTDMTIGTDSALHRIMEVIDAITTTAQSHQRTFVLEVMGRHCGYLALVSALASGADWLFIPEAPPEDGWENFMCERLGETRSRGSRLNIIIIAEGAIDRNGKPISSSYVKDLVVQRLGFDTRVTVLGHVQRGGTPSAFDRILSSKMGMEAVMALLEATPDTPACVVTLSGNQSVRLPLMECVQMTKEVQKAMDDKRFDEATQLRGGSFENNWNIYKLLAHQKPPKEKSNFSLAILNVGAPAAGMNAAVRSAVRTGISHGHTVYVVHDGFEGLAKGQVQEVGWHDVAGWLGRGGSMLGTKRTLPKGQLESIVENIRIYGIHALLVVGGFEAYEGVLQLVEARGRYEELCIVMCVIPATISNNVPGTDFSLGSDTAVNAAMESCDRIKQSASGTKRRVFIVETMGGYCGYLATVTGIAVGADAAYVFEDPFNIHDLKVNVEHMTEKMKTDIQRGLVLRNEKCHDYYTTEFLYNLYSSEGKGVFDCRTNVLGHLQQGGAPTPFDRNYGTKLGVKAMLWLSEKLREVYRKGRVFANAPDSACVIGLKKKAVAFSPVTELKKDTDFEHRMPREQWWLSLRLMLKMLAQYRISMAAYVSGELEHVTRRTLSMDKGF
Protocol: In order to measure PFK1 activity, a reaction was performed using either cell lysate (20 μg) or recombinant purified PFK1 (0.1 μg) in 1 ml of reaction buffer containing 50 mM Tris-HCl pH 7.5, 100 mM KCl, 5 mM MgCl2, 1 mM ATP, 0.2 mM NADH, 5 mM Na2HPO4, 0.1 mM AMP, 1 mM NH4Cl, 5 mM fructose-6-phosphate, 5 U of triose phosphate isomerase (Sigma-Aldrich), 1 U of aldolase (Sigma-Aldrich) and 1 U of α-glycerophosphate dehydrogenase (Sigma-Aldrich). Absorbance was recorded at 340 nm at room temperature every 15 s for 10 min using a Uvikon UV-Vis spectrophotometer (Research Instruments International). One unit of PFK1 activity is defined as the amount of enzyme that catalyzes the conversion of 1 μmol of fructose-6-phosphate to fructose-1,6-bisphosphate per min.
In order to determine the activation of PFK1 by F-2,6-BP (Sigma-Aldrich) over the indicated concentrations, reactions were performed in similar buffer conditions as described above except that an inhibitory concentration of ATP (3 mM) was used. […]
293T cells were transiently transfected with Flag-tagged PFKL, Myc-tagged PFKP, or Myc-tagged PFKM. […] Glycosylation levels were analyzed by chemoenzymatic labeling with a 5-kD mass tag, and PFK1 activities were measured on the purified proteins as described above.

## O=P(O)(O)OC[C@H]1O[C@@](CO)(OP(=O)(O)O)[C@@H](O)[C@@H]1O [F-2,6-BP, fructose-2,6-bisphosphate]
PFK1 [1]
  rescue of reduction of PFK1 oligomerization state by heat denaturation: partial rescue

## CC(=O)N[C@H]1/C(=N/OC(=O)Nc2ccccc2)O[C@H](CO)[C@@H](O)[C@@H]1O [PUGNAc, O-(2-acetamido-2-deoxy-D-glucopyranosylidene) amino Nphenylcarbamate]
[2]
  effect on cell viability: did not affect cell viability

B1: S529A PFK1: modified PFK-1 polypeptide with serine to alanine substitution at position 529 (SEQ ID NO: 2) (protein)
chain: MAAVDLEKLRASGAGKAIGVLTSGGDAQGMNAAVRAVTRMGIYVGAKVFLIYEGYEGLVEGGENIKQANWLSVSNIIQLGGTIIGSARCKAFTTREGRRAAAYNLVQHGITNLCVIGGDGSLTGANIFRSEWGSLLEELVAEGKISETTARTYSHLNIAGLVGSIDNDFCGTDMTIGTDSALHRIMEVIDAITTTAQSHQRTFVLEVMGRHCGYLALVSALASGADWLFIPEAPPEDGWENFMCERLGETRSRGSRLNIIIIAEGAIDRNGKPISSSYVKDLVVQRLGFDTRVTVLGHVQRGGTPSAFDRILSSKMGMEAVMALLEATPDTPACVVTLSGNQSVRLPLMECVQMTKEVQKAMDDKRFDEATQLRGGSFENNWNIYKLLAHQKPPKEKSNFSLAILNVGAPAAGMNAAVRSAVRTGISHGHTVYVVHDGFEGLAKGQVQEVGWHDVAGWLGRGGSMLGTKRTLPKGQLESIVENIRIYGIHALLVVGGFEAYEGVLQLVEARGRYEELCIVMCVIPATIANNVPGTDFSLGSDTAVNAAMESCDRIKQSASGTKRRVFIVETMGGYCGYLATVTGIAVGADAAYVFEDPFNIHDLKVNVEHMTEKMKTDIQRGLVLRNEKCHDYYTTEFLYNLYSSEGKGVFDCRTNVLGHLQQGGAPTPFDRNYGTKLGVKAMLWLSEKLREVYRKGRVFANAPDSACVIGLKKKAVAFSPVTELKKDTDFEHRMPREQWWLSLRLMLKMLAQYRISMAAYVSGELEHVTRRTLSMDKGF
PFK1 [3]
  glycosylation of PFK1 mutant: abolished
PFK1 [4]; 3 mM ATP (FIG. 19)
  PFK1 activity versus F-2,6-BP concentration: impaired at lower F-2,6-BP concentrations
PFK1 [4]; expressed in 293T cells, hypoxic vs normoxic (FIG. 2A)
  PFK1 activity under hypoxia: not significantly changed
